Data published in the DeepSol protein solubility set.

Assay: soluble on expression in E. coli; label from the status in PepcDB or PDB records

Sequence	soluble on expression in E. coli
MAHHHHHHMMRLSRLGVTAAAAAPSSFPLLQQLRGVRYANIQETLKPIPGQTAGQISILNEICCNPDAEEERRKPVFRAEVMPDAAAAAEEDNYLHTMHKWGYDSLTLFKKTNEDPGPWWNANASTLASNWSQVGDYANAGMWSGVWRYTYGIGEYNLRPYELRGRAWGRKDPKTGAVMIRYGKRSTSKPVQRLCFPHTKEHEQHHRIKNPANKDVKEISALHGKRILRELQYHLGQGLRFYLVDGVFGSDPGTATPYRIITDTPTHAYFASMAAIRTFNYVARQEVTLVKRLSQSPIDEWGWRRPGVLIYHAPSYDFESPRIVEEFGGPRPKDMGLSHNRFIATEPYSIPMKCAMGGEPSCDALLDSTAMLCGRWGFYADEKGYLTVPGESIMSKDGRSLTLVITGDEADADALRTSPQLYGSRHHRIANGVVSRAWDVVSMPACATGAKPLPTDIVEQDLQRVQRSLPTRMGLPHTLSHRHHGRRHVSEYGFKWPHNYTEDVSTKAYAGGHLFKAPKTDKLAGHQPRPSRFLMKDVDVVVIGEGVDAAAAVVSTLKDRGMLYAEEAPLKEAMATALKAAKSVKVVPRASSKVVLGKLTHV	not soluble
MAHHHHHHMMSAAARKRRCQQARQREPAAPQQKGEASRHDDTAEPERKPLTGAVSPAINSAAEAPSATPPVLSSHFSLKPGLPTSPPLMHKRTATRCGSVDEDALFFQTYENVADMRFASLDEIAQSVVDLRQRVQQRMQHQRLLTDIEALHERHGSALLRSMPHVLNVLEAAAAVDDGAEGPSGRSGGGQFTMSPEQVYARMVRQIDEQRSGHEQHQRDPDNAEKVVGILHLRQLPVGRPIPPRIRQLRESAALAQVAASEEARRRSRLLPRESKDRSSSTTKRGVSVSAAVSIQFADPAAPLMASSTGGGRSSSLTTVMELRRWRPYLERRNRLSAALTRIFDATTLRAVYSYYRTCALLQRDAAVVRRLVPDRQQWSALPSIEELAVLDRRLEVMFEGRPSWDGRQGA	not soluble
MAHHHHHHMNAVKEADVVFLEAYTSFLINSNAEKLAGIYGKPVILADREMVESGAVLDDAKVKKVVLLVVGDVFGATTHSDLIVRCNRQGIESKIVHNASIINAVGCCGLQLYRFGQVISLCFWTETWRPDSWYERLQSNRAAGIHTLVLLDIKVKEISDENLARGRKIYEPPRYMTIRQAIEQILEVEGYKQGGAVAADGSTFAVGLARVGSESQQVVAGTMKDLLSVDFGAPLHSLVIAGDVHDCEQEHVDLFRMAGQ	not soluble
MAHHHHHHMNDSISSPIKATCRDMALKSSLHSFTFSLKDFDIAGFLGDGAHGSVFLACERRTNFICVLKCISKSHLVKSTQEALLRKEIELQAHLKHPHIACMYTWFHTSSHVFFVMEYCSNGDLFTYLNENGPFCEKKVAEMLFEIIWAIRTCHDKRIAHLDLKPENVLVNHEEKCKLADFGLSAHIGSKHKKKGISHYRGTHDYWSPEQCARHQKKKQNFGEFDQKTDIWTLGILAFELKFGRPPFGSTNEERENVIMNRIQDYHWSQLFCEKVKQDLIDKLSPEFKDFLNLCLDKNPKKRPTAESLIQHPFIFIHNKNRSCIKSYATQPRGKQGPKLSHKGFNEQDGSFLTPIWFHNK	soluble
MAHHHHHHMNFLGGSLRSGGGHRREKGFSAKNKVQQYHGDGSESIVLAGRPFRVLQKISDVPPPYMVTRQRSTKYGEGGSSYVYLVENTSHLPEFPRHLALKRSFFGVDQVMEAHKEVEIVSRIEDKNIVCVYHSEISRSEGRLGVSIAMEYCSNNLYHRIRSSAGTGIVTRLTEAEICHVMFAVTSAVGYLHAQQPPITHRDIRPENILINNKHAGPTAYKLTNFGNATTEAYQCETREEANMAIADIQMHTNPAFRAPEMADPWSKKRICEKTDMWSMGVLLYYMMYMSLPFDPSTTIVKDWALTFPSEATASYTPSLRVITEHLLDPDPCSRWDVFALINYMRFDEDCSRHLGTFCFTKTEWPEGWEEHDVKVLGRTPPPKAPPVSYNEPGHEQLDSRGLRGQERVHGHTNGHQPPDDRGNGRDSAVVDGAAVQEAMIVLGGDPADDDPAVAKYRHQIIMVQQEAWRRAKAAAGLRDSPPTEPQESSAAPAPTRANNEAQKDVFDDLFASASPTVFPTSQASPAMGPSAPPATHQPPEKDVFSASDLFSTSAPQLDPSYPVMNTYGQAPQQMAMGGWGSGAPVMGSGGYPMQQPQNQQQAPWGYGVSNANNYAPPLPPQQQQQQQLQPFTNFLPPLSGQQPGQQQSQQQETSQPRTARATAKRDPFADLFN	not soluble
MAHHHHHHMNFVFIYIVLISFFNKSRCDNELSVKGSLTVANLKISSKNNQENGILFVNEESEYKIGLNERSELIISKKKKPLVTIDEHENLNFFNLDLSVKILNIQGILKIMNVNQFQMFVHEDFSNSSNTKGWIGDQFFNYTSSCGGINLLGGYGKLSKGEIYKTFENIPSHSQIRIKCNFHFIDNWDNQTAYMKITTDEKEEKYYVWTDTHSQINKQNSINICGNTTGESKFFSIIDIIIPHNSNKLIIYFGTNIQKDEPNLISWGISNFQIYLI	not soluble
MAHHHHHHMNPNQPPRRKTAFNEEFDVMQAIQEDRMAYHASIACHERCVHNYFFNNFYWREKTCMDNCLDKINQATVITNINYGKFEDVESKK	not soluble
MAHHHHHHMNTNGRSAYDMLARMSDEEDDDVPEDLELTFVPASKRREPASSHAVGHHAGNAVPSTLNSPTHSGPAVINPKPRAETVYEQERNAKVRQVLAEQQKTALGVVFSLDAFEAPSPGRYTLAGLQEATGTPAPSCSSAPYNREDQRRGFSQYRGRGGAEGGGRGGPGGGGGPRRYRMPNPNMSGEEQARYIRHRRNMAVIRNALREVDPETLEYMQVTQAPDQLPLNRNCEGFSKPYFSTDRGRGGVDAGGGRSTSSYRGRGGGGGMHGRGGRGFSPYSVGRGTGATRGDGLGRGAGGGCGRSAPFSPYS	not soluble
MAHHHHHHMPLPPVEDAPNSMARRHYLVERNRLRVKKYEPTRQAFEEETVKLSKQRVEQRVAMLNSWKSSVPLHTDTTRPLPGAARRQKEKDEPAAKHINLQILDEDAALKRERRALLRADILQQKKDREEYLAKWRANEKAYDSALLATNAEFARQMQEQERQAAVATKQYMDMMRASNLKELEAKRAKQREKEEADVAALRTMQENLRLKMEADERRAKDMKRLMQIENEENHSLFKKKQAEDKAREDAWIRTMMEHNAALAERERREAEQKRQQFKADFEDTIAKQKEFRRTHDYDEPQELIRKRNEEAAASAVLIRQEERLRNNEQRKQYREELMKQMREKYEWQLSHLDGV	not soluble
MAHHHHHHMPPLLTEVKPAGYRPQLRVCYLCGQQFGSASIGIHVPQCYQKKLSQWEVTDPAVRGPKPKHPDMVKWKGGNGASVEAINREQYQEFNSQLVACPHCARTFLPDRLPVHLRGCRGDGKVGVPSSKAKADGGGGSTPGGGKHKSEPRRAAGCRSLSPGPPLLPTCYLCGQQFGTASIGIHVPQCYEKKLAQWQNADPHSRGHPPKHPDTVNWRGRPGASPREQAEEQFQEFMNNLEECPNCSRRFLPERLVVHLRSCRPDNPPKPTSPRKAKTGGGARCPTPTTATTPADTAATKASIGGQTPRSEKQQRKQEPPTSSAGEDWIHPKRNRLTRHSTLPTESRVCPQCDAVEYDADAKFCRDCGHNFVPKPLSNSCQHCGERIPHGSRFCGTCGQPVQGASAHELTPGGPNKHASTVRRVVCPACEAISDADGNFCDNCGAALGDADLTPAPAAAGAAATPPSTRAGGSTEHKAVLYCAKCKETVEDTTAVFCEDCGGRLEALKVLTTKDDGPPLRADGTLPPSDVARLKVARASTPQRPSASEPAKTVTTPVASSVAPARPQTRNACTPIEEHTDEFPAYAEDDLVRVPCSHCGRQFASESLAKHERICCSQKKRRVFNATKQRLPEGATAAAKPSAGSQPAAPKRDWKAESESFRRALREARQVDQVLKAGGTAKDLPPPTYSTNPDYVPCPHCQRRFAPDVAARHIPRCANTVNRPKPPPRRR	soluble
MAHHHHHHMPRVQLFIDNGGYSVKALYLPASADTSNRSAATHASALTSSSTHGEAAATAATVAPAPKVLVVPNCVGAAVYAGTGIMGDQLDHLPHYHGLMVRRPVDRGFVVDGGLQARVWEHVLQHFSIESEEEVDVWLVVPFAAPKAVAQLLWLLCTRSFRFGSVTVVSSSFMSLIAYKFARGASAPSSAARKRPRSTVDTDAQESPGCSGSSATGGGMAIMVDVGFSATTVVPYVNYIPVYSSVVRLDVGGKVLTNRLKEYISFSQMNVIEDTWLINHVKEQCCVVARHPRRSLQRYAALWKGRTRDEVEAAAGALSTLRREDGGSGDGQASRSQRPGAPVAGVLTSPDVPIRYYLPTIPALLPLGVLEAELPSRLPKTSGVDAAALQHLLLCQERFLIPELLFTPADVGINQQGVAQAITEGIFQRGLLQHLTKLLRPLLLHNVCVYGGTASQPNFRDRLEAEVAAVAPQSPDCDADLDLKDSKRSSSSSRHGATEACADRTTCLSATPALPEFLLKAGGASTDLSLQPLLGAWCLLSATVDSGSNGGASQRELLRLRALVHERSGIELQHPPAGRVTVETFQHALERML	not soluble
MAHHHHHHMPSMDSLRTAVDNAPLLVNLLRLIRNARSPNYKDHEKGPVTFHFGGLSMRDTGSYEAAEELWRQSSWSSGALAPNAAGPFRGPLHLVVYLNHSPVEVWTLQDYREPATDHSVPRDFEQLEALNTLVRVLFAHLRCQDIYGVVLQSCVTATDDANNHFPASPNGNVSSPPHFPPPRNASLSRARTPHSPANHVSLRLFRSAEDCPTMPVHARRQYLWSSDDFVRVDVTMDRTWRHHSWVQPGTQAASPVLAAGDRERDTAVCAAGERSSPIRTASPGLRHFGSEGDTRSQSISPEAMGSLDKSSLPTPYLAPAATLALSSHLSRSPRTNLSPLMPGSRLSPAQGVSEFALPPADVSSPFDCDRSRQSRSSPPIMHSCVFASSHPAGGGGATYTAAVGAVNQVEDAVWLSNAEHVRRMGTLVCSRKQSPSASSSPVMGKKPRNSFISQKHEMGSLVPSISIGALSGIGFDRRLLSSDVDLEDLAAETASSGSSASVPNSAAMEQLVSLLGLCSKVKLQHVPSAPFGDLVLSLNLREVP	not soluble
MAHHHHHHMPSPQSLTGTPRSLQHAPLPAQVVRDALPLRRDVSDLLPVEQLRVLHVLTIAGMPRPHNTHSATISCRLSSPIMSATPNAYWRTCSMRCISVPSLCLEQTLPSSQSTAWMPREAADRSSVCGRSKCAETTATLTPSDISTHSTLPHKRAVPWEREVRRTVLA	not soluble
MAHHHHHHMPSSPFPTLPTRATQHHHHCSHTRVHQICPAVPSLSALSNILTVSAMSAKTAAAPSERSFVDRFVRSHAGAATAAGILEIGFFHPFDTIAKRLMANKGSIMRGSTGET	soluble
MAHHHHHHMQQRKTNKLFYPVAFLHFFLGEDNERRMFRRLSTSTLAAAAVRFYTPSESLKKLYTSDFDKTEFPLSIVPSDSVLFAKFLYKAAEPNNSFDAILKDFQTIAAASSSLPIFWERTAVVEDVAEFKKLSEPMFFTLVWMQKNGMLDLIPEVSEIYETYVNAKMKRIVAKIYVAPGKEGEVGEAKRVAQELHKEAKELDGYTLVFKTVVDRSIVTGFAVELAGQYVNRAEGHKSHAPAADEADYTTIPAPRLPKTVWEDNIETEVLCRYLESLAEYDAEEAKHGV	not soluble
MAHHHHHHMQSDARELNPGRADFWEHFYDQEDGRLRQKELHHRKAHEIVERGSLMNHYEWFMQYAMYEAALKACLRAVPTVLSKDGATRILHMGCGNSDFCDHVEGLLSDLHPVPSSSSRASEVLNVDICESIVAHLALHFPSRLYAVGNCCDLHVSSSPSMPFSSNAAWYSRDPALRLRKVLQSSVDVVFDKGTADALLSSFAGEYNPNMEAYMGEALKVLRPGGLLFLISINSEDVLSPYALSADDGLKSFHLAYTDVIELGAHDLRHLRVETLGSRYSCYGYAVVASAVAE	soluble
